Article PMC3068300 (Proteins, 2010)

Molecular target: the molecule itself
Experiment: SEC

B1: Mycobacterium tuberculosis Rv2704 (natural protein)
chain: ASRTMVSSGSEFESAVGYSRAVRIGPLVVVAGTTGSGDDIAAQTRDALRRIEIALGQAGATLADVVRTRIYVTDISRWREVGEVHAQAFGKIRPVTSMVEVTALIAPGLLVEIEADAYVGSAVADRNSGAGPKDPSPAGG
For B1, the “stoichiometry N” value was 3.
